In patent publication US20110287512:

Key:
[1] = tested on: ZFP7264 linker 1e center linker F2-F3 TGSQKP replaced by TVPRPTPPKP (artificial); test: ELONA; conditions: normalized ELISA score
[2] = tested on: ZFP7264 linker LRQKDERP (artificial)
[3] = tested on: ZFP7264 (host, center linker TGSQKP) (artificial)
[4] = tested on: ZFP7264 linker TGGGGSQKP (artificial)
[5] = tested on: ZFP7264 linker TSRPRPKP (artificial)
[6] = tested on: ZFP7264 linker TGLPKPKP (artificial)
[7] = tested on: ZFP7264 linker TLPLPRPKP (artificial)
[8] = tested on: ZFP7264 linker TLPPCFRPKP (artificial)
[9] = tested on: ZFP7264 linker TKHGTPKHREDKP (artificial)
[10] = tested on: ZFP7264 linker TGEGGKP (artificial)
[11] = tested on: ZFN7264 linker 1e (artificial); test: cell_activity; conditions: yeast, paired with 7263 ZFN
[12] = tested on: ZFN7264 linker TSRPRPKP (artificial); test: cell_activity; conditions: yeast, paired with 7263 ZFN
[13] = tested on: ZFN7264 (host, center linker TGSQKP) (synthetic); test: cell_activity; conditions: yeast, partner ZFN7263; host on 0-bp gap = 1.00; host data same as Table 9
[14] = tested on: ZFN7264 linker TGLPKPKP (artificial); test: cell_activity; conditions: yeast, paired with 7263 ZFN
[15] = tested on: ZFN7264 linker TGGGGSQKP (artificial); test: cell_activity; conditions: yeast, paired with 7263 ZFN
[16] = tested on: ZFN7263 linker TPNRCPPTKP (artificial); test: cell_activity; conditions: yeast, paired with 7264 ZFN
[17] = tested on: ZFN7263 linker TPRPPIPKP (artificial); test: cell_activity; conditions: yeast, paired with 7264 ZFN
[18] = tested on: ZFN7263 linker TPLCQRPMKQKP (artificial); test: cell_activity; conditions: yeast, paired with 7264 ZFN
[19] = tested on: ZFN7263 linker TQRPQIPPKP (artificial); test: cell_activity; conditions: yeast, paired with 7264 ZFN
[20] = tested on: ZFN7263 linker TYPRPLLAKP (artificial); test: cell_activity; conditions: yeast, paired with 7264 ZFN
[21] = tested on: ZFN7263 linker TGGGGSQKP (artificial); test: cell_activity; conditions: yeast, paired with 7264 ZFN
[22] = tested on: ZFN7263 (host) (artificial); test: cell_activity; conditions: yeast, paired with 7264 ZFN
[23] = tested on: ZFP7263 linker TYPRPLLAKP center linker F2-F3 TGSQKP replaced by TYPRPLLAKP (artificial); test: ELONA; conditions: normalized ELISA score
[24] = tested on: ZFP7263 linker TPRPPIPKP (artificial)
[25] = tested on: ZFP7263 (host, center linker TGSQKP) (artificial)
[26] = tested on: ZFP7263 linker TPNRCPPTKP (artificial)
[27] = tested on: ZFP7263 linker TGEGGKP (artificial)
[28] = tested on: ZFP7263 linker TQRPQIPPKP (artificial)
[29] = tested on: ZFP7263 linker LRQKDERP (artificial)
[30] = tested on: ZFP7263 linker TPLCQRPMKQKP (artificial)
[31] = tested on: ZFP7263 linker TGGGGSQKP (artificial)
[32] = tested on: ZFP8196 linker 1f center linker F2-F3 TGEKP replaced by TYPRPIAAKP (artificial); test: ELONA; conditions: normalized ELISA score
[33] = tested on: ZFP8196 linker TEPRAKPPKP (artificial)
[34] = tested on: ZFP8196 (host, center linker TGEKP) (artificial)
[35] = tested on: ZFP8196 linker TGEGGKP (artificial)
[36] = tested on: ZFP8196 linker TSSPRSNAKP (artificial)
[37] = tested on: ZFP8196 linker TPDRPISTCKP (artificial)
[38] = tested on: ZFP8196 linker TSPRLPAPKP (artificial)
[39] = tested on: ZFP8196 linker TGGGGSQKP (artificial)
[40] = tested on: ZFP8196 linker TPSHTPRPKP (artificial)
[41] = tested on: ZFP8196 linker 1d (artificial)
[42] = tested on: ZFP8196 linker LRQKDERP (artificial)
[43] = tested on: ZFP8196 linker TPDAPKPKP (artificial)
[44] = tested on: ZFP8196 linker 1c (artificial)
[45] = tested on: ZFP8196 linker TGYSIPRPKP (artificial)
[46] = tested on: ZFP8196 linker TVSPAPCRSKP (artificial)
[47] = tested on: ZFP8196 linker TCPRPPTRKP (artificial)
[48] = tested on: ZFP8196 linker TPGLHRPKP (artificial)

## TTAGTTAAAGCGCGCTCCGAATATC (double strand) [7264 target gap C]
[1]
  binding signal: 1.02
[2]
  binding signal (normalized ELISA): 0.03
[3]
  binding signal (normalized ELISA): 0
[4]
  binding signal (normalized ELISA): 0.04
[5]
  binding signal (normalized ELISA): 0.22
[6]
  binding signal (normalized ELISA): 0.11
[7]
  binding signal (normalized ELISA): 0.25
[8]
  binding signal (normalized ELISA): 0.25
[9]
  binding signal (normalized ELISA): 0.01
[10]
  binding signal (normalized ELISA): 0.03

## AAAGCGAGCTCCG (double strand) [7264 yeast half-site gap A]
[11]
  activity (normalized MEL-1): 1.24
[12]
  activity (normalized MEL-1): 0.18
[13]
  activity (normalized MEL-1): 0.05
[14]
  activity (normalized MEL-1): 0.08
[15]
  activity (normalized MEL-1): 0.08

## ACTCTGGTGGAAG (double strand) [7263 yeast half-site gap G]
[16]
  activity (normalized MEL-1): 2.85
[17]
  activity (normalized MEL-1): 2.18
[18]
  activity (normalized MEL-1): 1.52
[19]
  activity (normalized MEL-1): 2.18
[20]
  activity (normalized MEL-1): 2.21
[21]
  activity (normalized MEL-1): 0.6
[22]
  activity (normalized MEL-1): 0.09

## ACTCTGCTGGAAG (double strand) [7263 yeast half-site gap C]
[16]
  activity (normalized MEL-1): 0.34
[17]
  activity (normalized MEL-1): 1.41
[18]
  activity (normalized MEL-1): 0.3
[19]
  activity (normalized MEL-1): 0.43
[20]
  activity (normalized MEL-1): 0.37
[21]
  activity (normalized MEL-1): 0.04
[22]
  activity (normalized MEL-1): 0.05

## ACTCTGATGGAAG (double strand) [7263 yeast half-site gap A]
[16]
  activity (normalized MEL-1): 1.3
[17]
  activity (normalized MEL-1): 1.3
[18]
  activity (normalized MEL-1): 0.97
[19]
  activity (normalized MEL-1): 1.05
[20]
  activity (normalized MEL-1): 0.69
[21]
  activity (normalized MEL-1): 0.14
[22]
  activity (normalized MEL-1): 0.05

## AAAGCGTTGCTCCG (double strand) [7264 yeast half-site gap TT]
[11]
  activity (normalized MEL-1): 0.12
[12]
  activity (normalized MEL-1): 0.03
[13]
  activity (normalized MEL-1): 0.09
[14]
  activity (normalized MEL-1): 0.11
[15]
  activity (normalized MEL-1): 0.12

## TTAGCCACTCTGATGGAAGTGTATC (double strand) [7263 target gap A]
[23]
  binding signal: 1.95
[24]
  binding signal (normalized ELISA): 0.97
[25]
  binding signal (normalized ELISA): 0.01
[26]
  binding signal (normalized ELISA): 1.68
[27]
  binding signal (normalized ELISA): 0.02
[28]
  binding signal (normalized ELISA): 1.66
[29]
  binding signal (normalized ELISA): 0.03
[30]
  binding signal (normalized ELISA): 1.82
[31]
  binding signal (normalized ELISA): 0.06

## TTAGATAAACTGCCAAAAGGCTATC (double strand) [8196 target gap C]
[32]
  binding signal: 0.14
[33]
  binding signal (normalized ELISA): 0.17
[34]
  binding signal (normalized ELISA): 0.01
[35]
  binding signal (normalized ELISA): 0
[36]
  binding signal (normalized ELISA): 0.02
[37]
  binding signal (normalized ELISA): 0.05
[38]
  binding signal (normalized ELISA): 0.14
[39]
  binding signal (normalized ELISA): 0
[40]
  binding signal (normalized ELISA): 0.13
[41]
  binding signal (normalized ELISA): 0.09
[42]
  binding signal (normalized ELISA): 0.01
[43]
  binding signal (normalized ELISA): 0.13
[44]
  binding signal (normalized ELISA): 0.09
[45]
  binding signal (normalized ELISA): 0.06
[46]
  binding signal (normalized ELISA): 0.01
[47]
  binding signal (normalized ELISA): 0.05
[48]
  binding signal (normalized ELISA): 0.1

## TTAGTTAAAGCGGGCTCCGAATATC (double strand) [7264 target gap G]
[1]
  binding signal: 1.58
[2]
  binding signal (normalized ELISA): 0.06
[3]
  binding signal (normalized ELISA): 0
[4]
  binding signal (normalized ELISA): 0.08
[5]
  binding signal (normalized ELISA): 0.77
[6]
  binding signal (normalized ELISA): 0.38
[7]
  binding signal (normalized ELISA): 0.85
[8]
  binding signal (normalized ELISA): 0.77
[9]
  binding signal (normalized ELISA): 0.01
[10]
  binding signal (normalized ELISA): 0.05

## TTAGCCACTCTGGTGGAAGTGTATC (double strand) [7263 target gap G]
[23]
  binding signal: 3.88
[24]
  binding signal (normalized ELISA): 1.85
[25]
  binding signal (normalized ELISA): 0.03
[26]
  binding signal (normalized ELISA): 2.62
[27]
  binding signal (normalized ELISA): 0.05
[28]
  binding signal (normalized ELISA): 2.86
[29]
  binding signal (normalized ELISA): 0.18
[30]
  binding signal (normalized ELISA): 3.44
[31]
  binding signal (normalized ELISA): 0.41

## TTAGATAAACTGGCAAAAGGCTATC (double strand) [8196 target gap G]
[32]
  binding signal: 0.65
[33]
  binding signal (normalized ELISA): 0.78
[34]
  binding signal (normalized ELISA): 0.03
[35]
  binding signal (normalized ELISA): 0.03
[36]
  binding signal (normalized ELISA): 0.2
[37]
  binding signal (normalized ELISA): 0.29
[38]
  binding signal (normalized ELISA): 0.62
[39]
  binding signal (normalized ELISA): 0
[40]
  binding signal (normalized ELISA): 0.84
[41]
  binding signal (normalized ELISA): 0.52
[42]
  binding signal (normalized ELISA): 0.04
[43]
  binding signal (normalized ELISA): 0.68
[44]
  binding signal (normalized ELISA): 0.57
[45]
  binding signal (normalized ELISA): 0.43
[46]
  binding signal (normalized ELISA): 0.14
[47]
  binding signal (normalized ELISA): 0.48
[48]
  binding signal (normalized ELISA): 0.65

## TTAGATAAACTGACAAAAGGCTATC (double strand) [8196 target gap A]
[32]
  binding signal: 0.41
[33]
  binding signal (normalized ELISA): 0.39
[34]
  binding signal (normalized ELISA): 0.01
[35]
  binding signal (normalized ELISA): 0
[36]
  binding signal (normalized ELISA): 0.05
[37]
  binding signal (normalized ELISA): 0.11
[38]
  binding signal (normalized ELISA): 0.26
[39]
  binding signal (normalized ELISA): 0
[40]
  binding signal (normalized ELISA): 0.3
[41]
  binding signal (normalized ELISA): 0.23
[42]
  binding signal (normalized ELISA): 0.01
[43]
  binding signal (normalized ELISA): 0.16
[44]
  binding signal (normalized ELISA): 0.2
[45]
  binding signal (normalized ELISA): 0.13
[46]
  binding signal (normalized ELISA): 0.03
[47]
  binding signal (normalized ELISA): 0.18
[48]
  binding signal (normalized ELISA): 0.19

## TTAGCCACTCTGCTGGAAGTGTATC (double strand) [7263 target gap C]
[23]
  binding signal: 1.27
[24]
  binding signal (normalized ELISA): 0.67
[25]
  binding signal (normalized ELISA): 0.01
[26]
  binding signal (normalized ELISA): 1.13
[27]
  binding signal (normalized ELISA): 0.02
[28]
  binding signal (normalized ELISA): 1
[29]
  binding signal (normalized ELISA): 0.02
[30]
  binding signal (normalized ELISA): 1.28
[31]
  binding signal (normalized ELISA): 0.05

## AAAGCGGGCTCCG (double strand) [7264 yeast half-site gap G]
[11]
  activity (normalized MEL-1): 1.4
[12]
  activity (normalized MEL-1): 0.61
[13]
  activity (normalized MEL-1): 0.09
[14]
  activity (normalized MEL-1): 0.42
[15]
  activity (normalized MEL-1): 0.14

## TTAGTTAAAGCGAGCTCCGAATATC (double strand) [7264 target gap A]
[1]
  binding signal: 2.35
[2]
  binding signal (normalized ELISA): 0.05
[3]
  binding signal (normalized ELISA): 0
[4]
  binding signal (normalized ELISA): 0.07
[5]
  binding signal (normalized ELISA): 0.52
[6]
  binding signal (normalized ELISA): 0.19
[7]
  binding signal (normalized ELISA): 0.58
[8]
  binding signal (normalized ELISA): 0.72
[9]
  binding signal (normalized ELISA): 0.01
[10]
  binding signal (normalized ELISA): 0.02

## ACTCTGACTGGAAG (double strand) [7263 yeast half-site gap AC]
[16]
  activity (normalized MEL-1): 0.04
[17]
  activity (normalized MEL-1): 0.05
[18]; value as printed
  activity (normalized MEL-1): 1.05
[19]
  activity (normalized MEL-1): 0.03
[20]
  activity (normalized MEL-1): 0.1
[21]
  activity (normalized MEL-1): 0.04
[22]
  activity (normalized MEL-1): 0.09

## AAAGCGCGCTCCG (double strand) [7264 yeast half-site gap C]
[11]
  activity (normalized MEL-1): 0.14
[12]
  activity (normalized MEL-1): 0.08
[13]
  activity (normalized MEL-1): 0.05
[14]
  activity (normalized MEL-1): 0.07
[15]
  activity (normalized MEL-1): 0.07
